{"source": "patent US6960559", "test_system": "T1, cbz-FAF[125I]Y-NH2", "T1 sequence": "FAFY", "data": [{"protein": "papain (enzyme, UniProt P00784 134-345, looked up) Papain: IPEYVDWRQKGAVTPVKNQGSCGSCWAFSAVVTIEGIIKIRTGNLNEYSEQELLDCDRRSYGCNGGYPWSALQLVAQYGIHYRNTYPYEGVQRYCRSREKGPYAAKTDGVRQVQPYNEGALLYSIANQPVSVVLEAAGKDFQLYRGGIFVGPCGNKVDHAVAAVGYGPNYILIKNSWGTGWGENGYIRIKRGTGNSYGVCGLYTSSFYPVKN", "values": [{"measurement": "Amount necessary to degrade 50% of substrate in 30 min", "result": 2, "unit": "µg"}]}]}
